Test results from publication PMC13326754.

Key:
[1] = system: U2AF1alpha;U2AF2beta (Fritillaria borealis;Fritillaria borealis); experiment: EMSA; conditions: 330 nM U2AF; never exceeded 5% bound; EMSA: 20 mM Hepes, 0.1 M NaCl, 5% glycerol, 0.5% Tween-20, pH 7.8, 50 ng/ul BSA, 0.5 mM TCEP, 0.5 mM EDTA; 1 h on ice; 6% PAGE 0.5x TBE at 4 C
[2] = system: U2AF1beta;U2AF2beta (Fritillaria borealis;Fritillaria borealis); experiment: EMSA; conditions: 330 nM U2AF; never exceeded 5% bound; EMSA: 20 mM Hepes, 0.1 M NaCl, 5% glycerol, 0.5% Tween-20, pH 7.8, 50 ng/ul BSA, 0.5 mM TCEP, 0.5 mM EDTA; 1 h on ice; 6% PAGE 0.5x TBE at 4 C

Sequence	binding signal [1]	binding signal [2]
GGGCUGUCCUCUUUUUUUUUUCAGGCGUCU [ORN.PyU]	< 5 % bound	< 5 % bound
GGGUCGCUUCUCCCCCCCCCUAGGCGUCU [ORN.PyC]	< 5 % bound	< 5 % bound
